Measurements taken from patent US20240101687A1.
Numbering of substitutions follows the chain as printed.

B1: Hu3A9-C04 (bispecific antibody, part only; not given: Hu3A9 heavy and light chains, part only)
heavy, part: GGGGSGGGGSGGGGSQSVLTQPPSASGTPGQRVTISCTGSSSNIGSNDVSWYQQLPGTAPKLLIYANSNRPSGVPDRFSGSKSGTSASLAISGLRSEDEADYYCGAWEQWLNGYVFGCGTKLTVLGGGGSGGGGSGGGGSGGGGSEVQLLESGGGLVQPGGSLRLSCAASGFTFSSYDMSWVRQAPGKLEWVSAISYDNGNTYYADSVKGRFTISRDNSKNTLYLQMNSLRAEDTAVYYCAKGVLTTLMNWFDYWGQGTLVTVSS
B2: Hu3A9-1564 (bispecific antibody, part only; not given: Hu3A9 heavy and light chains, part only)
heavy, part: GGGGSGGGGSGGGGSQSVLTQPPSASGTPGQRVTISCTGSSSNIGSNDVSWYQQLPGTAPKLLIYANSNRPSGVPDRFSGSKSGTSASLAISGLRSEDEADYYCGAWDDSLNGYVFGCGTKLTVLGGGGSGGGGSGGGGSGGGGSEVQLLESGGGLVQPGGSLRLSCAASGFTFSSYDMSWVRQAPGKCLEWVSAISYDNGNTYYADSVKGRFTISRDNSKNTLYLQMNSLRAEDTAVYYCAKGVLTTLMNWFDYWGQGTLVTVSS
B3: hu3A9 × 1564_F06 (bispecific antibody, part only; not given: hu3A9 heavy and light chains, part only)
heavy, part: B2 heavy, part with A106T, D108A, D109G
B4: Hu3A9-B01 (bispecific antibody, part only; not given: Hu3A9 heavy and light chains, part only)
heavy, part: B2 heavy, part with P75S, C118G, C189G, Y198W, N200K, G201A, N202Q, T203P
B5: Hu3A9-E09 (bispecific antibody, part only; not given: Hu3A9 heavy and light chains, part only)
heavy, part: B2 heavy, part with P75S, C118G, C189G, Y198W, D199G, N200Q, N202K
B6: Hu3A9-B10 (bispecific antibody, part only; not given: Hu3A9 heavy and light chains, part only)
heavy, part: B2 heavy, part with P75S, A106S, D109V, C118G, C189G
B7: Hu3A9-A02 (bispecific antibody, part only; not given: Hu3A9 heavy and light chains, part only)
heavy, part: B2 heavy, part with P75S, D109T, S110T, C118G, C189G

Experiments:
[1] = molecular target: human IGF1R on cells (human) (UniProt P08069); assay: FACS on MCF-7 cells, 10 ug/mL (2nd Ab only: 2.86)
[2] = molecular target: human IGF1R extracellular domain, His-tagged (human) (UniProt P08069); assay: ELISA on ECD of IGF1R
[3] = molecular target: human IGF1R on cells (human) (UniProt P08069); assay: FACS on MCF-7 cells (2nd Ab only: 2.92)

| Binder | GeoMean, Internalization at 37° C. [1] | EC50 [2] [pM] | GEOmean [3] |
| --- | --- | --- | --- |
| B1 | 7.23 | 107 | 3.88 |
| B2 | 7.72 | 144 |  |
| B3 | 19.8 |  |  |
| B4 |  | 145 |  |
| B5 |  | 159 |  |
| B6 |  | 156 |  |
| B7 |  | 130 |  |
